The results in this text go back to doi:10.1101/2024.05.17.594765.

To fix the notation:
B1: C-terminally Halo-tagged full-length zyxin (zyxin-Halo) [modified: Janelia Fluor 646 Halo-ligand conjugated to the Halo tag; Janelia Fluor 646 Halo-ligand conjugated to the Halo tag] [human] / C-terminally … (parent)
chain 1: MSETVICSSRATVMLYDDGNKRWLPAGTGPQAFSRVQIYHNPTANSFRVVGRKMQPDQQVVINCAIVRGVKYNQATPNFHQWRDARQVWGLNFGSKEDAAQFAAGMASALEALEGGGPPPPPALPTWSVPNGPSPEEVEQQKRQQPGPSEHIERRVSNAGGPPAPPAGGPPPPPGPPPPPGPPPPPGLPPSGVPAAAHGAGGGPPPAPPLPAAQGPGGGGAGAPGLAAAIAGAKLRKVSKQEEASGGPTAPKAESGRSGGGGLMEEMNAMLARRRKATQVGEKTPKDESANQEEPEARVPAQSESVRRPWEKNSTTLPRMKSSSSVTTSETQPCTPSSSDYSDLQRVKQELLEEVKKELQKVKEEIIEAFVQELRKRGSP
chain 2: MAAPRPSPAISVSVSAPAFYAPQKKFGPVVAPKPKVNPFRPGDSEPPPAPGAQRAQMGRVGEIPPPPPEDFPLPPPPLAGDGDDAEGALGGAFPPPPPPIEESFPPAPLEEEIFPSPPPPPEEEGGPEAPIPPPPQPREKVSSIDLEIDSLSSLLDDMTKNDPFKARVSSGYVPPPVATPFSSKSSTKPAAGGTAPLPPWKSPSSSQPLPQVPAPAQSQTQFHVQPQPQPKPQVQLHVQSQTQPVSLANTQPRGPPASSPAPAPKFSPVTPKFTPVASKFSPGAPGGSGSQPNQKLGHPEALSAGTGSPQPPSFTYAQQREKPRVQEKQHPVPPPAQNQNQVRSPGAPGPLTLKEVEELEQLTQQLMQDMEHPQRQNVAVNELCGRCHQPLARAQPAVRALGQLFHIACFTCHQCAQQLQGQQFYSLEGAPYCEGCYTDTLEKCNTCGEPITDRMLRATGKAYHPHCFTCVVCARPLEGTSFIVDQANRPHCVPDYHKQYAPRCSVCSEPIMPEPGRDETVRVVALDKNFHMKCYKCEDCGKPLSIEADDNGCFPLDGHVLCRKCHTARAQT

Variants of B1 are the subject of one test. Kind of test: force reconstitution TIRF assay. The conditions noted are these: with C-terminally Halo-tagged VASP (VASP-Halo) [modified: Janelia Fluor 549 Halo-ligand conjugated to the Halo tag, images were acquired every 1 s, read off a plot.
In the case of chain 2 F71A F93A F104A F114A, the screen value worked out at 38.

The variants in a further test derive from B1. Briefly: force reconstitution TIRF assay. The conditions noted are these: with C-terminally Halo-tagged VASP (VASP-Halo) [modified: Janelia Fluor 549 Halo-ligand conjugated to the Halo tag, images were acquired every 1 s, read off a plot. This is another data set of the same source.
For chain 2 F71A F93A F104A F114A, the screen value came out at 2.6 s.
